Measurements published in patent US20050079503A1, “Binding domain of Siah (seven in absentia homolog) protein” (PETER MacCALLUM CANCER INSTITUTE, ST. VINCENT'S INSTITUTE …, priority 2001, published 2005).
Residue numbers refer to the chain shown, from its start. Several values for one entry are separate records, joined by “and”; a condition that tells them apart may be missing. Equal entries are not always repeated. Entries after “also recorded” stand apart in the source; their conditions may differ. No end group written: not given here. *: point of attachment. Biotin = O=C1N[C@H]2[C@H](CS[C@H]2CCCCC(=O)*)N1

Tests used:
[1] = target: T1, mutant MBP-Siah1a-ZC containing a Leu211 to Arg mutation (Mus musculus, UniProt P61092, L211R); assay: ELISA-based binding of biotinylated plectin peptide to mutant Siah substrate-binding domain; settings: peptide captured on Neutravidin plate at 4 μg/ml; ABTS read at A405
T1 construct: made in house; the making of the mutant is not described
T1 sequence (P61092 80-282 L211R): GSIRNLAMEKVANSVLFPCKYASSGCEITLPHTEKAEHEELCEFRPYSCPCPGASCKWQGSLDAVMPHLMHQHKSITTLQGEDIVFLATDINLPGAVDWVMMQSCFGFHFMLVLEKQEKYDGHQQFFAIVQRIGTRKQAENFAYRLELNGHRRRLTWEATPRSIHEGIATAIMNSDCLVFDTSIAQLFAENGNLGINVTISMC
Procedure: (§1) Siah SBD binding to the plectin peptide (Biotin-[…]-NH2 corresponding to residues 95-117 of human plectin) was assessed by capturing biotinylated peptide on a 96-well plate coated with 0.5 μg Neutravidin per well. Peptide was captured for 30 min at room temperature at a concentration of 4 μg/ml. MBP-Siah1a-ZC fusion protein was bound to the peptide for 50 min at room temperature (or the controls of buffer alone (PBS/tween 20) or mutant MBP-Siah1a-ZC containing a Leu211 to Arg mutation). Bound protein was quantitated by rabbit anti-MBP antibody (1:300 dilution), then HRP conjugated goat-anti-rabbit antibody. Detection utilised ABTS substrate read at A405.
(§2) Following the identification of a Siah binding motif present in PHYL (RPVAXVXPXXR), a protein database search detected a number of proteins with conserved motifs, including plectin. The Applicants utilised a synthetic peptide corresponding to the sequence […] in plectin to test binding to Siah in an ELISA-based assay, where the underlined sequence corresponds to the amino acids conserved with the PHYL motif. […] Furthermore, as other Siah binding proteins are identified in this way it is predicted that the sequence of the optimal binding motif will be further refined.

[2] = target: T2, MBP-Siah1a-ZC fusion protein (native Siah substrate-binding domain) (Mus musculus, UniProt P61092); assay: ELISA-based binding of biotinylated plectin peptide to Siah substrate-binding domain; settings: peptide captured on Neutravidin plate at 4 μg/ml; ABTS read at A405
T2 construct: made in house; host or cells: E. coli BL21DE3
T2 sequence (P61092 80-282): T1 sequence (P61092 80-282 L211R) with R132L
Procedure: as §1, §2

Siah = target: T3, Siah (Mus musculus, UniProt P61092); assay: Interaction studies using bacterially expressed proteins; type: binding
T3 construct: made in house; host or cells: bacteria
T3 sequence (P61092 1-282): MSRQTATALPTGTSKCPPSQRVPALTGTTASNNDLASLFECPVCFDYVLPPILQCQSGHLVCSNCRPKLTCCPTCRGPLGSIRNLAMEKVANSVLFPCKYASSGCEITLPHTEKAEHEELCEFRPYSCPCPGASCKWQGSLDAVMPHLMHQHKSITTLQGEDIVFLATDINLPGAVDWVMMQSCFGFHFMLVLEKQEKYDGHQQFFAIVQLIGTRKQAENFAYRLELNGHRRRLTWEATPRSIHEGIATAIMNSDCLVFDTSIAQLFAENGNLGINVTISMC
Excerpt: PHYL is known to interact and function with SINA, the Drosophila orthologue of mammalian Siah, in the targeted degradation of the transcriptional repressor tramtrack 88 (TTK88). Applicants have shown that it interacts similarly with mammalian Siah.

Siah1a SBD = target: T4, Siah1a SBD (Mus musculus, UniProt P61092); assay: Stoichiometry of the GST-PHYL108-130 / Siah1a SBD complex by gel filtration and N-terminal sequencing; type: binding; settings: complex isolated on Superdex 200; after five cycles of N-terminal sequencing
T4 construct: isolating a complex of GST-PHYL108-130 and Siah1a SBD by gel filtration; made in house; host or cells: E. coli BL21DE3
T4 sequence (P61092 90-282 limits assumed): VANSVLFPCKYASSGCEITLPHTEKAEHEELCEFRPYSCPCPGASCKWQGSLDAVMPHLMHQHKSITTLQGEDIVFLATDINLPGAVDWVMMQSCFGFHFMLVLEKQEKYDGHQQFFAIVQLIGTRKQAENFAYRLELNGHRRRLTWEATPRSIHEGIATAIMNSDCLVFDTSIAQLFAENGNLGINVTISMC
Excerpt: (§3) The stoichiometry of interaction was investigated by isolating a complex of GST-PHYL108-130 and Siah1a SBD by gel filtration on Superdex 200 and quantitating the components by N-terminal sequencing.

MBP-Siah = target: T5, MBP-Siah (Mus musculus, UniProt P61092); assay: Competition assay: peptides as competitors of wild-type PHYL108-130 binding to Siah (96-well plate, anti-MBP detection); settings: competition with immobilised GST-PHYL108-130 for MBP-Siah, 1 hour at room temperature; estimated from inhibition curves; read-out: IC50 (concentration at which 50% inhibition is observed)
T5 construct: made in house
T5 sequence (P61092 1-282): T3 sequence (P61092 1-282)
Procedure: Mutant peptides were used in a competition assay in which they were tested as competitors of wild-type PHYL 108-130 binding to Siah. GST-PHYL108-130 was immobilised in wells of a 96-well plate and MBP-Siah was bound for 1 hour at room temperature, in the presence of various concentrations of mutant peptides. After binding and washing, the amount of bound MBP-Siah was quantitated in a two antibody sandwich of anti-MBP antibody, followed by HRP-conjugated goat anti-rabbit antibody, using ABTS as substrate. IC50 (the concentration at which 50% inhibition is observed) values were estimated from the individual inhibition curves.
In order to test this hypothesis Applicants systematically mutated the PHYL peptide, utilising the solid phase pin technology of Mimotopes (Clayton, Victoria, Australia). A full set of peptides, with alanine substituted at each position in the peptide, was synthesised. At positions where a native alanine occurred, glycine was substituted. Mutant peptides were screened for their ability to compete with the binding between Siah and PHYL peptide, then peptides of interest were investigated further utilising surface plasmon resonance.
The initial screen of peptides yielded IC50 values of approximately 50-100 nM for wild-type peptide or peptides with ineffective mutations. […]

MBP-Siah1a = target: T6, MBP-Siah1a (Mus musculus, UniProt P61092); assay: Surface plasmon resonance (Biacore) binding of PHYL108-130 to Siah; settings: Biacore 2000, peptide immobilised on chip, MBP-Siah1a as analyte, read-out: affinity constant
T6 construct: made in house; host or cells: pMalC2 plasmid
T6 sequence (P61092 1-282): T3 sequence (P61092 1-282)
Excerpt: (§4) The binding kinetics for Siah interaction with PHYL108-130 were monitored using surface plasmon resonance on a Biacore 2000. The biotinylated PHYL108-130 peptide was captured on the chip surface by immobilised neutravidin, and MBP-Siah1a was used as analyte.
(§5) To determine binding affinities, synthetic PHYL peptide was immobilised to a C5 BIAcore chip using two different strategies (direct chemical coupling through the free amino group on Lysine113 and binding to coupled avidin via an N-terminal biotin on the peptide) and interaction was measured directly by surface plasmon resonance. This method facilitated the measurement of association and dissociation rates, and the determination of an affinity constant (FIG. 26).

[3] = target: T7, MBP-Siah1a fusion protein (mouse, UniProt P61092 1-282, limits assumed); assay: SPR, Biacore 2000; biotinylated peptide captured on immobilised neutravidin, MBP-Siah1a as analyte
T7 construct: not shown: linker to Siah1a not described
T7 sequence (looked up): T3 sequence (P61092 1-282)
Excerpt: as §4, §5

[4] = target: T8, MBP-Siah1a-ZC fusion protein (mouse, UniProt P61092 80-282); assay: ELISA: biotinylated plectin peptide captured on Neutravidin-coated plate, bound MBP fusion detected with anti-MBP and HRP antibody, ABTS, A405
T8 construct: range 80-282; ZC = zinc fingers plus C-terminus, residues 80-282 of Siah1a, fused to MBP; also called Siah SBD; not shown: linker not described
T8 sequence (looked up): T1 sequence (P61092 80-282 L211R) with R132L
Procedure: as §1

GST-PHYL108-130 = target: T9, GST-PHYL108-130 (Drosophila); assay: complex isolated by gel filtration on Superdex 200, components quantitated by N-terminal sequencing (five cycles)
T9 construct: also called PHYL peptide as a fusion protein with glutathione-S-transferase; not shown: glutathione-S-transferase (GST) fusion partner
T9 chain: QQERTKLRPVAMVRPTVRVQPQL
Excerpt: as §3

[5] = target: the molecule itself; assay: size exclusion chromatography (self-association of the Siah1a binding domain)

Biotin-ASLQRVRRPVAMVMPARRTPHVQ-NH2 [plectin peptide]
binding to mutant form of Siah substrate-binding domain (Leu211 to Arg) [1]: not | binding to native Siah substrate-binding domain [2]: bound; also recorded: binds

DCC: deleted in colorectal cancer (DCC)
affinity of interaction with Siah (in words) (Siah): lower affinity

GST-PHYL108-130: PHYL 23-residue peptide expressed as a fusion with glutathione-S-transferase (GST) (QQERTKLRPVAMVRPTVRVQPQL; not fully specified (N-terminus); also: GST fusion)
average ratio of Siah binding domain to GST-PHYL108-130 residues (Siah1a SBD): 2.34±0.38

QQERTKLRPVAMVRPTVRVQPQL [PHYL108-130]
IC50 (MBP-Siah): 50 to 100 nM | Kd (MBP-Siah1a): ~180 nM and 180 nM

B1: Kid: kinesin-like DNA-binding protein (Kid) (protein, UniProt Q14807 1-665, looked up)
Kinesin-like protein KIF22: MAAGGSTQQRRREMAAASAAAISGAGRCRLSKIGATRRPPPARVRVAVRLRPFVDGTAGASDPPCVRGMDSCSLEIANWRNHQETLKYQFDAFYGERSTQQDIYAGSVQPILRHLLEGQNASVLAYGPTGAGKTHTMLGSPEQPGVIPRALMDLLQLTREEGAEGRPWALSVTMSYLEIYQEKVLDLLDPASGDLVIREDCRGNILIPGLSQKPISSFADFERHFLPASRNRTVGATRLNQRSSRSHAVLLVKVDQRERLAPFRQREGKLYLIDLAGSEDNRRTGNKGLRLKESGAINTSLFVLGKVVDALNQGLPRVPYRDSKLTRLLQDSLGGSAHSILIANIAPERRFYLDTVSALNFAARSKEVINRPFTNESLQPHALGPVKLSQKELLGPPEAKRARGPEEEEIGSPEPMAAPASASQKLSPLQKLSSMDPAMLERLLSLDRLLASQGSQGAPLLSTPKRERMVLMKTVEEKDLEIERLKTKQKELEAKMLAQKAEEKENHCPTMLRPLSHRTVTGAKPLKKAVVMPLQLIQEQAASPNAEIHILKNKGRKRKLESLDALEPEEKAEDCWELQISPELLAHGRQKILDLLNEGSARDLRSLQRIGPKKAQLIVGWRELHGPFSQVEDLERVEGITGKQMESFLKANILGLAAGQRCGAS
affinity of interaction with Siah (in words) (Siah): lower affinity

B2: SIP: Siah-interacting protein (SIP) (protein, UniProt Q9HB71 2-228, looked up)
Calcyclin-binding protein: ASEELQKDLEEVKVLLEKATRKRVRDALTAEKSKIETEIKNKMQQKSQKKAELLDNEKPAAVVAPITTGYTVKISNYGWDQSDKFVKIYITLTGVHQVPTENVQVHFTERSFDLLVKNLNGKSYSMIVNNLLKPISVEGSSKKVKTDTVLILCRKKVENTRWDYLTQVEKECKEKEKPSYDTETDPSEGLMNVLKKIYEDGDDDMKRTINKAWVESREKQAKGDTEF
affinity of interaction with Siah (in words) (Siah): lower affinity

B3: OBF-1: Oct-binding factor 1 (OBF-1) (protein, UniProt Q16633 1-256, looked up)
POU domain class …: MLWQKPTAPEQAPAPARPYQGVRVKEPVKELLRRKRGHASSGAAPAPTAVVLPHQPLATYTTVGPSCLDMEGSVSAVTEEAALCAGWLSQPTPATLQPLAPWTPYTEYVPHEAVSCPYSADMYVQPVCPSYTVVGPSSVLTYASPPLITNVTTRSSATPAVGPPLEGPEHQAPLTYFPWPQPLSTLPTSTLQYQPPAPALPGPQFVQLPISIPEPVLQDMEDPRRAASSLTIDKLLLEEEDSDAYALNHTLSVEGF
affinity of interaction with Siah (in words) (Siah): lower affinity

B4: biotinylated PHYL108-130 peptide (peptide)
peptide: Biotin-QQERTKLRPVAMVRPTVRVQPQL
notes: also called synthetic PHYL peptide
Kd [3]: 180 nM

B5: plectin peptide (Biotin-ASLQRVRRPVAMVMPARRTPHVQ-NH2) (peptide)
peptide: Biotin-ASLQRVRRPVAMVMPARRTPHVQ-NH2
SMILES: CSCC[C@H](NC(=O)[C@H](C)NC(=O)[C@@H](NC(=O)[C@@H]1CCCN1C(=O)[C@H](CCCNC(=N)N)NC(=O)[C@H](CCCNC(=N)N)NC(=O)[C@@H](NC(=O)[C@H](CCCNC(=N)N)NC(=O)[C@H](CCC(N)=O)NC(=O)[C@H](CC(C)C)NC(=O)[C@H](CO)NC(=O)[C@H](C)NC(=O)CCCC[C@@H]1SC[C@@H]2NC(=O)N[C@@H]21)C(C)C)C(C)C)C(=O)N[C@H](C(=O)N[C@@H](CCSC)C(=O)N1CCC[C@H]1C(=O)N[C@@H](C)C(=O)N[C@@H](CCCNC(=N)N)C(=O)N[C@@H](CCCNC(=N)N)C(=O)N[C@H](C(=O)N1CCC[C@H]1C(=O)N[C@@H](Cc1c[nH]cn1)C(=O)N[C@H](C(=O)N[C@@H](CCC(N)=O)C(N)=O)C(C)C)[C@@H](C)O)C(C)C
notes: also called synthetic peptide corresponding to residues 95-117 of human plectin
binding result [4]: binds

B6: Siah1a binding domain (purified tryptic fragment) (other, mouse, UniProt P61092 90-282, looked up)
chain: T4 sequence (P61092 90-282 limits assumed)
modifications: two 2-mercaptoethanol adducts on cysteines in the purified form (21,838 Da; 21,685 Da when reduced)
notes: Dimer by size exclusion chromatography and in the crystal; Start residue must be found by locating VANSV on Siah1a; also called Siah1a SBD
average ratio of Siah binding domain to GST-PHYL108-130 residues (stoichiometry) (GST-PHYL108-130): 2.34 mol/mol | binding result [5]: binds
